Patent KR20210063070A (dated 2021)

Assays:
[1] = target: T1, recombinant mouse B7-H3 protein with C-terminal His tag (Sino Biological, 50973-M08H) (mouse, UniProt Q8VE98 29-244); assay: ELISA, IgG on coated recombinant mouse B7-H3-His
T1 construct: Bought; also called 마우스 B7-H3
T1 sequence (looked up): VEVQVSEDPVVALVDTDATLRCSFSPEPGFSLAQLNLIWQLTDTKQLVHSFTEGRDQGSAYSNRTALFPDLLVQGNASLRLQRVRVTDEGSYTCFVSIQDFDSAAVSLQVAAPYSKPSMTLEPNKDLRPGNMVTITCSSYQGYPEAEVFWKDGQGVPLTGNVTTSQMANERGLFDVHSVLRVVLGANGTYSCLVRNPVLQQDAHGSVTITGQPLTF

[2] = target: T2, mouse B7-H3 expressed on the surface of mouse cancer cell lines (CT26, B16F10, TC-1) (mouse, UniProt Q8VE98 29-316); assay: flow cytometry on CT26, B16F10 and TC-1 cells, 10 ㎍/㎖
T2 construct: whole, on cells; also called 세포 표면 발현 마우스 B7-H3
T2 sequence (looked up): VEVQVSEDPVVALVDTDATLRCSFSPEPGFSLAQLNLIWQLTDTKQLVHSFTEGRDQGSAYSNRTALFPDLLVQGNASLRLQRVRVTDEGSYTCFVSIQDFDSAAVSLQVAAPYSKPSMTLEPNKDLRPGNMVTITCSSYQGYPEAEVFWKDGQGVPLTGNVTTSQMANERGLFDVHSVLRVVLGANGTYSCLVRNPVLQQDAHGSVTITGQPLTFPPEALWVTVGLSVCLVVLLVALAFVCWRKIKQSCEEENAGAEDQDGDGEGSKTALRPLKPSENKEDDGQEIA

[3] = target: T3, human B7-H3 expressed on the surface of human cancer cell lines (human, UniProt Q5ZPR3 29-534); assay: flow cytometry on human cancer cell lines that express B7-H3
T3 construct: whole, on cells; also called 세포 표면 발현 B7-H3; CD276
T3 sequence (looked up): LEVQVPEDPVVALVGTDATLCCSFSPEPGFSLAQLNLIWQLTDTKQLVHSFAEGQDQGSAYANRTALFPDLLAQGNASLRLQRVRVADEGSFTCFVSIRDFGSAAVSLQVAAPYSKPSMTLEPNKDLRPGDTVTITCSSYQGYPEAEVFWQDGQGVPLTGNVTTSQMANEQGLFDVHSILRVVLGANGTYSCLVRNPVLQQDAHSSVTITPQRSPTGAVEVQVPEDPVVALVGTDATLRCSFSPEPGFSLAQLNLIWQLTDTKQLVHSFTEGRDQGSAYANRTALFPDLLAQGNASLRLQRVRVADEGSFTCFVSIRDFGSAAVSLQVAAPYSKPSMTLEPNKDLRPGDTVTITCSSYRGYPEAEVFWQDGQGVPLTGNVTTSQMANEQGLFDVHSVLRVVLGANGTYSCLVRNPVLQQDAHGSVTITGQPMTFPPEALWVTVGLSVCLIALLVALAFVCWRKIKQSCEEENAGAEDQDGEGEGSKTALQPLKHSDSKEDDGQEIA

Measured: binding result

B1: anti-B7-H3 antibody B5 (full IgG form) (antibody, V domains shown)
VH: EVQLLESGGGLVQPGGSLRLSCAASGFTFSDYAMSWVRQAPGKGLEWVSSISSGSGSIYYADSVKGRFTISRDNSKNTLYLQMNSLRAEDTAVYYCAKNLIPLDYWGQGTLVTVSS
VL: QSVLTQPPSASGTPGQRVTISCSGSSSNIGSNAVSWYQQLPGTAPKLLIYYNSHRPSGVPDRFSGSKSGTSASLAISGLRSEDEADYYCGSWDASLNAYVFGGGTKLTVLG
binds: [1] | [2] | [3]

B2: anti-B7-H3 antibody C4I (full IgG form) (antibody, V domains shown)
VH: EVQLLESGGGLVQPGGSLRLSCAASGFTFSGYYMSWVRQAPGKGLEWVSLISPSSGSIYYADSVKGRFTISRDNSKNTLYLQMNSLRAEDTAVYYCAKGLTKFDYWGQGTLVTVSS
VL: QSVLTQPPSASGTPGQRVTISCTGSSSNIGSNDVSWYQQLPGTAPKLLIYANSHRPSGVPDRFSGSKSGTSASLAISGLRSEDEADYYCGSWDDSLSGYVFGGGTKLTVLG
binds: [1] | [2] | [3]

B3: anti-B7-H3 antibody D8G (full IgG form) (antibody, V domains shown)
VH: EVQLLESGGGLVQPGGSLRLSCAASGFTFSSYSMSWVRQAPGKGLEWVSGIYSDGSNTYYADSVKGRFTISRDNSKNTLYLQMNSLRAEDTAVYYCAKMLHRFDYWGQGTLVTVSS
VL: QSVLTQPPSASGTPGQRVTISCSGSSSNIGSNSVTWYQQLPGTAPKLLIYADSQRPSGVPDRFSGSKSGTSASLAISGLRSEDEADYYCGTWDSSLNAYVFGGGTKLTVLG
binds: [1] | [2] | [3]

B4: anti-B7-H3 antibody 10F11 (full IgG form) (antibody, V domains shown)
VH: EVQLLESGGGLVQPGGSLRLSCAASGFTFSSYGMSWVRQAPGKGLEWVSGIYSGGSSKYYADSVKGRFTISRDNSKNTLYLQMNSLRAEDTAVYYCAKNRLRFDYWGQGTLVTVSS
VL: QSVLTQPPSASGTPGQRVTISCTGSSSNIGSNSVTWYQQLPGTAPKLLIYSDSHRPSGVPDRFSGSKSGTSASLAISGLRSEDEADYYCGTWDASLNAYVFGGGTKLTVLG
binds: [1] | [2] | [3]

B5: anti-B7-H3 antibody F6V (full IgG form) (antibody, V domains shown)
VH: EVQLLESGGGLVQPGGSLRLSCAASGFTFSDYAMSWVRQAPGKGLEWVSGISPGGSNTYYADSVKGRFTISRDNSKNTLYLQMNSLRAEDTAVYYCAKDAWIARLLLFDYWGQGTLVTVSS
VL: QSVLTQPPSASGTPGQRVTISCSGSSSNIGSNAVTWYQQLPGTAPKLLIYYNNKRPSGVPDRFSGSKSGTSASLAISGLRSEDEADYYCGTWDDSLSGYVFGGGTKLTVLG
binds: [1] | [2] | [3]
